Source: patent publication US20030219858A1

Target: human heteromultimeric ASIC-2S.2 channel (human ASIC2A + human ASIC3) (human) (UniProt Q16515)
Experiment: cell-based or functional assay

human heteromultimeric ASIC-2S.2 channel (human ASIC2A + human ASIC3) (human), sequence (Q16515 whole entry, chain 1 of 2): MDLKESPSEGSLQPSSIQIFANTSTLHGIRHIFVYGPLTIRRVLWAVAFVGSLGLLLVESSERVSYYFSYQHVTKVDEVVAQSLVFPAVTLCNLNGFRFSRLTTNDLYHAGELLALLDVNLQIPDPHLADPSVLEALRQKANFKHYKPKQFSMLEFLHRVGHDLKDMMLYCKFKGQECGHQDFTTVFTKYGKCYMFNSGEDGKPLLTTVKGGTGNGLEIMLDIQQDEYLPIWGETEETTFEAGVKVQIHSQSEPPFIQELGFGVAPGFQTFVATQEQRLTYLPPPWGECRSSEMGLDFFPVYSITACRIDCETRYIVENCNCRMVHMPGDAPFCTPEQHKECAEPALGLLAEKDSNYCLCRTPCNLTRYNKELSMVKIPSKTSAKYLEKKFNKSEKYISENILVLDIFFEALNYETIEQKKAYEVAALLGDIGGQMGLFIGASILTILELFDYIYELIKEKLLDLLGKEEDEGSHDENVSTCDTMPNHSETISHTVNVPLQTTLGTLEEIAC
human heteromultimeric ASIC-2S.2 channel (human ASIC2A + human ASIC3) (human), sequence (chain, as listed by the source, chain 2 of 2): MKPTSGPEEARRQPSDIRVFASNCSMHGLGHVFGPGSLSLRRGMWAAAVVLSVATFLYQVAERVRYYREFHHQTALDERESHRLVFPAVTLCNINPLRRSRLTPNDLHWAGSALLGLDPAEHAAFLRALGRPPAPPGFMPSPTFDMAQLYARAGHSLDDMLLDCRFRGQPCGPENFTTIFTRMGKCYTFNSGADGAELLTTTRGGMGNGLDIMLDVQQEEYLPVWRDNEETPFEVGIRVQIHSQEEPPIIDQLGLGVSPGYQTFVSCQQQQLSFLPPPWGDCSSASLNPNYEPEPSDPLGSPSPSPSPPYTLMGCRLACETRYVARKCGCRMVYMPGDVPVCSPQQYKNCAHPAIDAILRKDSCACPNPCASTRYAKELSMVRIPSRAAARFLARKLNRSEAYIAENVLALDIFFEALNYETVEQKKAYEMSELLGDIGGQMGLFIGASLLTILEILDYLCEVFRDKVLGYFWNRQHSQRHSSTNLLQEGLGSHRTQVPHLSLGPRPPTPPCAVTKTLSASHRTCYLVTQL

EC50 of potentiation of currents induced by pH 4: 2 µM
Substance: NPFF (from UniProt O15130 69-76) (peptide)
